Measurements reported in patent US20250076311A1 (Chugai, published 2025).

T1: cynomolgus monkey FcγRIIa3 extracellular domain with C-terminal His-tag (cynomolgus monkey)
T1 construct: also called cyno FcgRIIa3; cynoFcγRIIa3; not shown: His-tag added to C-terminus
T1 chain: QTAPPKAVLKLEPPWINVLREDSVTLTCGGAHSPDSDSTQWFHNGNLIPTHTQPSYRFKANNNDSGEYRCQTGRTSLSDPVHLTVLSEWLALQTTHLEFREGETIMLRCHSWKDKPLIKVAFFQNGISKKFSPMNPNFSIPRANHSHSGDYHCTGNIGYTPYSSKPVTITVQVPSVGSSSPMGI

T2: human FcγRIIb extracellular domain with C-terminal His-tag (human, UniProt P31994 43-217)
T2 construct: also called human FcgRIIb; not shown: His-tag added to C-terminus
T2 sequence: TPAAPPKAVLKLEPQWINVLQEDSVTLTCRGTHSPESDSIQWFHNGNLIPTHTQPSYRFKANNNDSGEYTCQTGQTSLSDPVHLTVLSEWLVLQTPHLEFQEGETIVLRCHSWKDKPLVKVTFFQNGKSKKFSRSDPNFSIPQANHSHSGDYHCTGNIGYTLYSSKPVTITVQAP

T3: cynomolgus monkey FcγRIIa1 extracellular domain with C-terminal His-tag (cynomolgus monkey)
T3 construct: also called cyno FcgRIIa1; cynoFcγRIIa1; not shown: His-tag added to C-terminus
T3 chain: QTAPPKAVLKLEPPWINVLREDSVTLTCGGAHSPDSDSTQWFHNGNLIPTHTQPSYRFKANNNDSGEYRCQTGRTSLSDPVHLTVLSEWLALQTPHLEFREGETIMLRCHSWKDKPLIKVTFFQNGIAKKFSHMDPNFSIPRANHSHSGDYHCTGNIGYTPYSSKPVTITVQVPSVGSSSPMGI

T4: cynomolgus monkey FcγRIIb extracellular domain with C-terminal His-tag (cynomolgus monkey)
T4 construct: also called cyno FcgRIIb; cynoFcγRIIb; not shown: His-tag added to C-terminus
T4 chain: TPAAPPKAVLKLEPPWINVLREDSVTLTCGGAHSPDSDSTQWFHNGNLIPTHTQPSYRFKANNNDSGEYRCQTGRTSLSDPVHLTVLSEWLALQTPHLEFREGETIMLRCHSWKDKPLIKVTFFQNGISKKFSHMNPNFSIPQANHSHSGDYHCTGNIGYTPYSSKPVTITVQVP

T5: human FcγRIIaH extracellular domain with C-terminal His-tag (human, UniProt P12318 34-217)
T5 construct: also called human FcgRIIaH; FcγRIIa (type H); not shown: His-tag added to C-terminus
T5 sequence: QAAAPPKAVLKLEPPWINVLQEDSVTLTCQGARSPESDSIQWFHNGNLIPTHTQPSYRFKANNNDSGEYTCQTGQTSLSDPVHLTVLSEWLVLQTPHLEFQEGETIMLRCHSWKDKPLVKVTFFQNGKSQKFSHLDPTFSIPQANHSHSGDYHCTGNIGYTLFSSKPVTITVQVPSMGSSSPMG


What was measured:
Experiment in all cases: SPR Biacore, antibody captured, FcgR analyte
[1] = target: T1, cynomolgus monkey FcγRIIa3 …
[2] = target: T6, cynomolgus monkey FcγRIIIaS extracellular domain with C-terminal His-tag (cynomolgus monkey, UniProt A3RFZ7 21-206 (rhesus entry))
T6 construct: also called cyno FcgRIIIaS; cynoFcγRIIIaS; not shown: His-tag added to C-terminus

[3] = target: T2, human FcγRIIb extracellular domain with …
[4] = target: T3, cynomolgus monkey FcγRIIa1 …
[5] = target: T4, cynomolgus monkey FcγRIIb extracellular …
[6] = target: T5, human FcγRIIaH extracellular domain …

T6 sequence (A3RFZ7 21-206): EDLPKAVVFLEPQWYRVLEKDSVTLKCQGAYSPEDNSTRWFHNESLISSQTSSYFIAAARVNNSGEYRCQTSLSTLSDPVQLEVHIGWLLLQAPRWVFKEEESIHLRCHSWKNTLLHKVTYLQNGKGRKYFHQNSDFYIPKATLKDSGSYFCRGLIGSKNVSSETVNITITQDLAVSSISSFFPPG

| Binder | Kd [1] | KD fold (SG1 = 1) [2] | Kd [2] | KD fold (SG1 = 1) [3] | Kd [4] | Kd [3] | KD fold (SG1 = 1) [4] | Kd [5] | KD fold (SG1 = 1) [6] |
| --- | --- | --- | --- | --- | --- | --- | --- | --- | --- |
| M103205H795-MY170/M103202L889-SK1 (antibody, human IgG1, kappa, name in EU numbering, EU numbering) heavy: QVTLKESGPVLVKPTETLTLTCTVSGIDLSHDDISWVRQAPGKGLEWVGIISYAGSTYYASWAKGRLTISKDTSKNQVVLTMTNMDPVDTATYYCARGVPAYSHGGDLWGQGTLVTVSSASTKGPSVFPLAPSSKSTSGGTAALGCLVKDYFPEPVTVSWNSGALTSGVHTFPAVLQSSGLYSLSSVVTVPSSSLGTQTYICNVNHKPSNTKVDKKVEPKSCDKTHTCPPCPAPELLNGPSVFLFPPKPKDTLMISRTPEVTCVVVDVSEEDPEVKFNWYVDGVEVHNAKTKPREEQYNSTYRVVSVLTVLHQDWLNGKEYKCKVSNKALPAPIEKTISKAKGQPREPQVYTLPPSREEMTKNQVSLTCLVKGFYPSDIAVEWESNGQPENNYKTTPEVLDSDGSFFLYSKLTVDKSRWQQGNVFSCSVMHEALHNHYTQKSLSLSP light: DIVMTQSPATLSLSPGERATLSCTSSQSVYHANWLSWFQQKPGQPPKLLIYWASTLAYGVPSRFSGSGSGTDFTLTISSLQPEDAATYYCAGGYGGGRYAFGQGTKVEIKRTVAAPSVFIFPPSDEQLKSGTASVVCLLNNFYPREAKVQWKVDNALQSGNSQESVTEQDSKDSTYSLSSTLTLSKADYEKHKVYACEVTHQGLSSPVTKSFNRGEC | 1200 nM | 0.17 fold | 7900 nM | 2.5 fold | 23000 nM |  |  |  |  |
| M103205H795-MY173/M103202L889-SK1 (antibody, human IgG1, kappa, name in EU numbering, EU numbering) heavy: QVTLKESGPVLVKPTETLTLTCTVSGIDLSHDDISWVRQAPGKGLEWVGIISYAGSTYYASWAKGRLTISKDTSKNQVVLTMTNMDPVDTATYYCARGVPAYSHGGDLWGQGTLVTVSSASTKGPSVFPLAPSSKSTSGGTAALGCLVKDYFPEPVTVSWNSGALTSGVHTFPAVLQSSGLYSLSSVVTVPSSSLGTQTYICNVNHKPSNTKVDKKVEPKSCDKTHTCPPCPAPELLNGPSVFLFPPKPKDTLMISRTPEVTCVVVDVSEEDPEVKFNWYVDGVEVHNAKTKPREEQYNSTYRVVSVLTVLHQDWLNGKEYKCKVSNKALPAPIEKTISKAKGQPREPQVYTLPPSREEMTKNQVSLTCLVKGFYPSDIAVEWESNGQPENNYKTTPHVLDSDGSFFLYSKLTVDKSRWQQGNVFSCSVMHEALHNHYTQKSLSLSP light: DIVMTQSPATLSLSPGERATLSCTSSQSVYHANWLSWFQQKPGQPPKLLIYWASTLAYGVPSRFSGSGSGTDFTLTISSLQPEDAATYYCAGGYGGGRYAFGQGTKVEIKRTVAAPSVFIFPPSDEQLKSGTASVVCLLNNFYPREAKVQWKVDNALQSGNSQESVTEQDSKDSTYSLSSTLTLSKADYEKHKVYACEVTHQGLSSPVTKSFNRGEC | 8000 nM | 0.12 fold | 3100 nM |  |  | 1000 nM | 1.5 fold | 730 nM |  |
| M103205H795-MY180/M103202L889-SK1 (antibody, human IgG1, kappa, name in EU numbering, EU numbering) heavy: QVTLKESGPVLVKPTETLTLTCTVSGIDLSHDDISWVRQAPGKGLEWVGIISYAGSTYYASWAKGRLTISKDTSKNQVVLTMTNMDPVDTATYYCARGVPAYSHGGDLWGQGTLVTVSSASTKGPSVFPLAPSSKSTSGGTAALGCLVKDYFPEPVTVSWNSGALTSGVHTFPAVLQSSGLYSLSSVVTVPSSSLGTQTYICNVNHKPSNTKVDKKVEPKSCDKTHTCPPCPAPELLNGPSVFLFPPKPKDTLMISRTPEVTCVVVDVSEEDPEVKFNWYVDGVEVHNAKTKPREEQYNSTYRVVSVLTVLHQDWLNGKEYKCKVSNKALPAPIEKTISKAKGQPREPQVYTLPPSREEMTKNQVSLTCLVKGFYPSDIAVEWESNGQPENNYKTTPSVLDSDGSFFLYSKLTVDKSRWQQGNVFSCSVMHEALHNHYTQKSLSLSP light: DIVMTQSPATLSLSPGERATLSCTSSQSVYHANWLSWFQQKPGQPPKLLIYWASTLAYGVPSRFSGSGSGTDFTLTISSLQPEDAATYYCAGGYGGGRYAFGQGTKVEIKRTVAAPSVFIFPPSDEQLKSGTASVVCLLNNFYPREAKVQWKVDNALQSGNSQESVTEQDSKDSTYSLSSTLTLSKADYEKHKVYACEVTHQGLSSPVTKSFNRGEC | 1200 nM | 0.17 fold | 3100 nM |  |  | 1900 nM | 1.7 fold |  |  |
| M103205H795-MY198/M103202L889-SK1 (antibody, human IgG1, kappa, name in EU numbering, substitutions in EU numbering, introduced into M103205H795-SG1) heavy: QVTLKESGPVLVKPTETLTLTCTVSGIDLSHDDISWVRQAPGKGLEWVGIISYAGSTYYASWAKGRLTISKDTSKNQVVLTMTNMDPVDTATYYCARGVPAYSHGGDLWGQGTLVTVSSASTKGPSVFPLAPSSKSTSGGTAALGCLVKDYFPEPVTVSWNSGALTSGVHTFPAVLQSSGLYSLSSVVTVPSSSLGTQTYICNVNHKPSNTKVDKKVEPKSCDKTHTCPPCPAPELLNGPVVFLFPPKPKDTLMISRTPEVTCVVVDVSDEDPEVKFNWYVDGVEVHNAKTKPREEQYNSTYRVVSVLTVLHQDWLNGKEYKCKVSNKALPKPIEKTISKAKGQPREPQVYTLPPSREEMTKNQVSLTCLVKGFYPSDIAVEWESNGQPENNYKTTPMVLDSDGSFFLYSKLTVDKSRWQQGNVFSCSVMHEALHNHYTQKSLSLSP light: DIVMTQSPATLSLSPGERATLSCTSSQSVYHANWLSWFQQKPGQPPKLLIYWASTLAYGVPSRFSGSGSGTDFTLTISSLQPEDAATYYCAGGYGGGRYAFGQGTKVEIKRTVAAPSVFIFPPSDEQLKSGTASVVCLLNNFYPREAKVQWKVDNALQSGNSQESVTEQDSKDSTYSLSSTLTLSKADYEKHKVYACEVTHQGLSSPVTKSFNRGEC |  | 0.15 fold |  |  |  |  | 7.5 fold |  | 1.2 fold |
| M103205H795-MY202/M103202L889-SK1 (antibody, human IgG1, kappa, name in EU numbering, substitutions in EU numbering, introduced into M103205H795-SG1) heavy: QVTLKESGPVLVKPTETLTLTCTVSGIDLSHDDISWVRQAPGKGLEWVGIISYAGSTYYASWAKGRLTISKDTSKNQVVLTMTNMDPVDTATYYCARGVPAYSHGGDLWGQGTLVTVSSASTKGPSVFPLAPSSKSTSGGTAALGCLVKDYFPEPVTVSWNSGALTSGVHTFPAVLQSSGLYSLSSVVTVPSSSLGTQTYICNVNHKPSNTKVDKKVEPKSCDKTHTCPPCPAPELLNGPVVFLFPPKPKDTLMISRTPEVTCVVVDVSDEDPEVKFNWYVDGVEVHNAKTKPREEQYNSTYRVVSVLTVLHQDWLNGKEYKCKVSNKALPKPIEKTISKAKGQPREPQVYTLPPSREEMTKNQVSLTCLVKGFYPSDIAVEWESNGQPENNYKTTPPVLDSDGSFFLYSKLTVDKSRWQQGNVFSCSVMHEALHNHYTQKSLSLSP light: DIVMTQSPATLSLSPGERATLSCTSSQSVYHANWLSWFQQKPGQPPKLLIYWASTLAYGVPSRFSGSGSGTDFTLTISSLQPEDAATYYCAGGYGGGRYAFGQGTKVEIKRTVAAPSVFIFPPSDEQLKSGTASVVCLLNNFYPREAKVQWKVDNALQSGNSQESVTEQDSKDSTYSLSSTLTLSKADYEKHKVYACEVTHQGLSSPVTKSFNRGEC |  | 0.09 fold |  |  |  |  | 3.7 fold |  |  |
